Data reported in patent publication US20120121633A1, “HIV CD4 BINDING SITE BASED COVALENT IMMUNOGEN COMPOSITIONS” (priority 2010, published 2012).
Where a chain is given by its changes, count along the chain named.

B1: 4B2-F8: murine IgG MAb from KLH-E-416-433 immunization (antibody, V domains shown)
VH: QVQLQQSGAELVRPGASVKLSCMALGYTFTDYEIHWVKQTPVHGLEWIGGFHPGSGGGAYSQKFKGKATLIADKSSSIAYMEVISLTSEDSAVYYCTRFRYSSFAMVYWGQGTSVTVSS
VL: DIVMSQSPSSLAVSAGEKVTMSCKSSQSLLNSRTRKNYLAWYQQKPGQSPKLLIYWASTRESGVPDRFTGSGSGTDFTLTINSVQAEDLAVYYCKQSYNLWTFGGGTKLEIK
B2: 9F3-A7: murine IgG MAb from KLH-E-416-433 immunization (antibody, V domains shown)
VH: QVQLQQSGAELVRPGASVKLSCKALGYTFTDYEMHWVKQTPVHGLEWIGGIYPGSGGTAYNQKFKGKATLTADKSSSTAYMELSSLTSEDSAVYYCTKFRFSSFAMDYWGQGTSVTVSS
VL: B1 VL with S22R, N82S, S97F
B3: 2G9: murine IgM MAb from KLH-E-416-433 immunization (antibody, V domains shown)
VH: QVQLKQSGPGLVQPSQSLSITCTVSGFSLTSYGVHWVRQSPGKGLEWLGVIWSGGSTDYNAAFISRLSISKDNSKSQVFFKMNSLQANDTAIYYCARNKDYGSSYDYYAMDYWGQGTSVTVSS
VL: DIQMTQTTSSLSASLGDRVTISCRASQDISNYLNWYQQKPDGTVKLLIYYTSRLHSGVPSRFSGSGSGTDYSLTISNLEQEDIATYFCQQGNTLPTFGGGTKLEIKRA

What was measured:
[1] = system: subtype C clinical HIV isolate ZA009 (97ZA009); test: HIV neutralization, PBMC/clinical isolate assay, strain ZA009; assay type: cell-based; conditions: MAb clones from KLH-E-416-433 immunized mice
Excerpt: FIG. 12. […] A, 416-433 and 301-324 epitope sequences from the autologous subtype B strain of IgA donor 2866 and heterologous subtype C strain ZA009 used for neutralization assays. […] Host cells, PBMCs; virus isolate, R5-dependent subtype C strain ZA009. IC50, 50% neutralization concentration. Dashed lines, 95% confidence limits. […] Pooled IgA (I19-21 donors 2857, 2866 and 2886) was fractionated on agarose-conjugated as in FIG. 8. […] Host cells, PBMCs; virus, strain ZA009.
FIG. 19. […] Abs were fractionated by affinity chromatography on agarose-conjugated E-416-433. Plotted are the neutralization potencies (IC50) expressed per unit mass Ab content (sum of IgM, IgG and IgA measured by ELISA using class-specific Abs as in FIG. 8). IC50 computed from dose-response curves using the CCR5-dependent subtype C strain 97ZA009. […] Noncovalently and covalently bound fractions were recovered, respectively, by pH 2.7 elution and 2-PAM elution.
Neutralization of clinical HIV isolates obtained from the NIH AIDS Reagent Repository is tested using phytohemagglutinin-activated human PBMCs pooled from 4-12 donors.^44 The virus is incubated with the test Ab sample in quadruplicate to ensure reliability. The reaction mixtures are added to PBMCs in 96-well plates. Infection is monitored using p24 enzyme-immunoassay kits. […] The stock HIV strain ZA009 is used to infect PBMC in the presence of the Ab. Infection proceeds overnight and cells are washed and resuspended in RPMI media containing the Ab. After 7 days the cell-free supernatant is harvested and used to infect a new aliquot of stimulated PBMCs (second passage). The virus is passaged 10 times with a gradual (2-fold) increase in Ab concentration with each passage. A virus aliquot is saved at each passage for sequencing.^112 Viral supernatants are titered at each passage using a fresh batch of PBMCs. The gp120 gene will sequenced following RT-PCR as described.^113

[2] = target: BSA-E-416-433 (Human immunodeficiency virus type 1 group M subtype B, UniProt P04578, C418S/K429E); conditions: inhibited by gp120, Bt-E-416-433 and sCD4, not by Sh416-433 or ovalbumin
Protocol: FIG. 21. […] IgM 2G9 binding to BSA-E-416-433 (70 ng/well) was tested in the absence or presence of increasing concentrations of Bt-E-416-433, sCD4, gp120, control Sh416-433 and control ovalbumin (OVA). Y-axis values are computed as follows 100x[A490 with competitor/A490 without competitor]. Methods as in ref 2.

Molecule	HIV neutralizing activity [1]	specificity of binding shown by competitive inhibition [2]
B1	neutralizing activity	
B2	neutralizing activity	
B3	neutralizing activity	Specificity for 421-433 CD4BS sequence
